Target: VFLIP_D614G spike with Foldon and purification tags enzymatically removed (SARS-CoV-2) (UniProt P0DTC2)
Assay: cryo-EM structure

Which stoichiometry N does the source give for “HLX70 Fab (Fab from HLX70, a humanized pan-coronavirus mAb)” here?
The stoichiometry N was 3 Fab:spike.
